These results are taken from patent US12648942B2, “Method for treating acute ischemic stroke” (Lumosa Therapeutics Co., LTD, priority 2021, dated 2026).

A short description of data set [1]: Study 101: safety and tolerability of single doses in healthy subjects. The conditions noted are these: both sexes, human, plasma, intravenous; from Subject 001-008 and Subject 001-042, 0.05 mg/kg; read-out: Cmax at which DC009 was tolerable in human. The format is in vivo. An excerpt: The primary objective of this Phase 1, double-blind, randomized, placebo-controlled study was to determine the safety, tolerability, and pharmacokinetics of single ascending doses of DC009 drug product administered by 15-minute IV infusion in healthy subjects. The secondary objectives were to characterize the pharmacodynamics of single-ascending doses, explore the pharmacokinetic-pharmacodynamic relationships of single-ascending doses, and to determine the RP2D of the DC009 drug product.
The subject population was healthy adult male and female subjects between the ages of 18 and 65 years. Sixteen healthy subjects completed the study. All subjects received a single dose of DC009 drug product or placebo administered via a 15-minute IV infusion.
Cohort 1 (8 subjects) was administered 0.05 mg/kg DC009 drug product or placebo, and Cohort 0 (8 subjects) was administered 0.025 mg/kg DC009 drug product or placebo. […]

Data set [2] deals with patients with Acute Ischemic Stroke (AIS). As to the kind of experiment: Study 201: Phase 2 single-dose study in patients with Acute Ischemic Stroke, efficacy (NIHSS, mRS). It counts as in vivo, human. The conditions noted are these: Day 90. An excerpt:
The objective of this Phase 2, double-blind, single-dose, randomized, placebo-controlled study is to evaluate the safety, tolerability, and potential efficacy of DC009 drug product in patients with Acute Ischemic Stroke (AIS). The safety and potential efficacy outcomes from this Phase 2 study will guide the design of future studies in patients with acute ischemic stroke. Eligible patients will be randomized 2:1 to receive DC009 drug product or placebo via a 15-minute IV infusion to obtain a total of approximately 24 evaluable patients. Eligible patients will receive a single 0.025 mg/kg dose of DC009 drug product or placebo within 24 hours after the onset of stroke symptoms.
The key inclusion criteria are as follows: Subject a) are to be aged 18-90 years, inclusive, at the time of screening, b) have a NIHSS of 4-30, c) clinical diagnosis of AIS within 24 hours after stroke symptom onset.
Tissue plasminogen activator (alteplase) is the only approved drug treatment for stroke in the US and, per the labeling, must be administered within 3 hours of stroke symptom onset. The approved window of administration in other countries varies. Because there is no approved drug treatment for acute ischemic stroke for administration beyond 3 hours of stroke symptom onset in the US, a placebo-controlled study would be ethically acceptable and is necessary in order to evaluate the drug effect objectively. Preliminary efficacy will be evaluated by assessing the infarct volume, occurrence of recurrent stroke, neurological outcome measured by NIHSS and functional independence measured by Modified Rankin Scale (mRS).
• The occurrence of symptomatic intracranial hemorrhage (sICH) within 36 hours after dosing, clinical deterioration defined as an increase in the NIHSS of 4 points or more and confirmed by computed tomography or magnetic resonance imaging. Secondary Endpoint: • The occurrence of symptomatic intracranial hemorrhage (sICH) and asymptomatic intracranial hemorrhage (aICH) within 7 days after dosing • The occurrence of mortality due to intracerebral or other major bleeding complications within 24 hours, 7 days, 30 days, and 90 days after dosing. • Number and severity of AEs within 90 days after dosing • The occurrence of recurrent stroke within 90 days after dosing • Functional outcome such as mRS • Neurological outcome such as NIHSS at 30 days • The change of infarct volume in CT or MRI examination at 24 hours and 7 days • Plasma PK parameters of DC009 Results Baseline Characterization

Data set [3] is described as follows: Plasma pharmacokinetics after single IV bolus in Sprague Dawley rat. It counts as in vivo. The following applies: for AUC(0-inf) / Cmax / AUC(0-t): male, Sprague-Dawley, rat, plasma, n=3; for AUC(0-t): read-out: AUClast, Mean (converted). The protocol: The plasma pharmacokinetics of DC009 was studied in SD Rat following a single IV bolus administration of DC009. Male SD rats were dosed with DC009 at 0.001, 0.01, 0.1, 1 and 10 mg/kg by intravenous bolus injection with a dose volume of 1 mL/kg (n=3 per treatment group).

A short description of data set [4]: Human plasma pharmacokinetics, summary statements of the description. It counts as in vivo.
[5] abbreviates: 0.001 mg/kg IV bolus, some concentrations below LLOQ 5 ng/mL.
Where [6] appears, read: 0.01 mg/kg IV bolus, some concentrations below LLOQ 5 ng/mL.

Like-named read-outs stand apart in the source and are kept apart here.

Consider `CC(NC(=O)C1CCCN1)C(=O)NC(CCCCN)C(=O)NCCCCC(NC(=O)C1Cc2cc(O)c(O)cc2C(C)(C)N1)C(=O)O` (stereo not drawn) [DC009, 3S-6,7-dihydroxy-1,1-dimethyl-1,2,3,4-tetrahydro-isoquinoline-3-acyl-Lys(Pro-Ala-Lys)], for which the Cmax – broadly, the highest concentration seen after dosing – was roughly 150 ng/mL in data set [1]; 1.6 ng/mL in data set [3] (setting [5]); 6.1 ng/mL in data set [3] (setting [6]); 59.9 ng/mL in data set [3] (0.1 mg/kg IV bolus); 426 ng/mL in data set [3] (1 mg/kg IV bolus); 8120 ng/mL in data set [3] (10 mg/kg IV bolus). The “subjects with mRS of 0-1” value in data set [2] (pre-dose 0%, 3 subjects) worked out at 21%. Moreover, the “subjects with mRS Score 3” value in data set [2] (pre-dose 6%) stood at 29%. In data set [2] (pre-dose 13%), the “subjects with mRS Score 2” value is 29%. The “subjects with mRS Score 5 or 4” value in data set [2] (pre-dose 81%) was 21%. The “dose proportionality of Cmax and AUC0-∞” value in data set [3] (dose of 0.1 to 10 mg/kg groups) is “approximately dose-proportional increases”. The AUC(0-inf) (usually total exposure, with the tail of the curve extrapolated) in data set [3] (setting [5]) is 1.88 ng·h/mL; in data set [3] (setting [6]), 4.04 ng·h/mL; in data set [3] (0.1 mg/kg IV bolus), 8.31 ng·h/mL; in data set [3] (1 mg/kg IV bolus) it was 53.2 ng·h/mL; in data set [3] (10 mg/kg IV bolus), 937 ng·h/mL. In addition, the AUC(0-t) in data set [3] (setting [5]) is 1.76 ng·h/mL; in data set [3] (setting [6]), 3.35 ng·h/mL; in data set [3] (0.1 mg/kg IV bolus) it was 7.89 ng·h/mL; in data set [3] (1 mg/kg IV bolus), 52.8 ng·h/mL; in data set [3] (10 mg/kg IV bolus), 936 ng·h/mL. The “accumulation on multiple doses” value in data set [4] (administration of multiple doses) was “does not lead the accumulation”. Moreover, the “plasma level after dosing” value in data set [4] (human plasma, 30 minutes after dosing) is given as “almost un-measurable”. In addition, the half-life (as a rule, the time needed for the level to fall by half in the phase considered) in data set [4] (human plasma, read-out: elimination half-life) is less than 5 min.
